Experimental findings from patent publication US20240293478A1 are described below.

The target in assay [1] is mouse TGF-β1 (R&D systems) (mouse) (UniProt P04202). The assay can be described thus: direct ELISA with mouse TGF-β1; concentrated supernatant of transfected HEK293T cells. Background: ELISA stands for enzyme-linked immunosorbent assay.
For assay [2] the target is unchanged. Nature of the assay: direct ELISA with mouse TGF-β1; supernatant of transfected HEK293T cells.
For assay [3], the target named is recombinant murine CTLA-4-human IgG1 Fc chimera (R&D Systems) (mouse; human) (UniProt P09793). The assay can be described thus: competitive ELISA; competitor mouse CD80 coated at 100 ng/ml, 10 ng/ml murine CTLA-4-human IgG1 Fc mixed with HEK293T supernatant, anti-human IgG1-HRP.
For assay [4] the target is unchanged. Nature of the assay: competitive ELISA; competitor mouse CD86 coated at 100 ng/ml, 10 ng/ml murine CTLA-4-human IgG1 Fc mixed with HEK293T supernatant, anti-human IgG1-HRP.
The target in assay [5] is IL-12 receptor on HEK-Blue IL-12 cells (UniProt P42701). Nature of the assay: cell-based or functional assay.
IL-12 receptor on HEK-Blue IL-12 cells, sequence (Q99665 24-862, chain 2 of 2, other chains not shown): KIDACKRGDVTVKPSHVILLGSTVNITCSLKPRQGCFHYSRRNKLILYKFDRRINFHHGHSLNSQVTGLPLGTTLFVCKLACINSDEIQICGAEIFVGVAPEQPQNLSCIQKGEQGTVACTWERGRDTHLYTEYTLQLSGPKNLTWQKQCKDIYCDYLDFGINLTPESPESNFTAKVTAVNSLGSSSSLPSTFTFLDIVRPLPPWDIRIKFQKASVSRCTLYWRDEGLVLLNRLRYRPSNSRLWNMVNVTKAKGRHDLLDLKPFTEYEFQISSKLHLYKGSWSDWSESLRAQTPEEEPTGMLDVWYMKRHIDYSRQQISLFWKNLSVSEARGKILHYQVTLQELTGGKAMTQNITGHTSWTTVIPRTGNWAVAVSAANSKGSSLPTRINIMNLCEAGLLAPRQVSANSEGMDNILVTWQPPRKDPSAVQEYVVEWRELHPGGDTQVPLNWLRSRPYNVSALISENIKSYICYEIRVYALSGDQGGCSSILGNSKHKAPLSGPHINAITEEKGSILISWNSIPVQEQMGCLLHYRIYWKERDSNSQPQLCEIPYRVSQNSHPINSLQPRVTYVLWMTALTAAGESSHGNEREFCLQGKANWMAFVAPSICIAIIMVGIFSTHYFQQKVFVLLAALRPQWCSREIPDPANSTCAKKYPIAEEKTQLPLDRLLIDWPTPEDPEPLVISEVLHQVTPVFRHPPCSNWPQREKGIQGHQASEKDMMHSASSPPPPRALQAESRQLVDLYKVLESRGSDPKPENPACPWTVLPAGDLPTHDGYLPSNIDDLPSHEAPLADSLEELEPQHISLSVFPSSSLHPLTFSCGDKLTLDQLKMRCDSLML

recombinant murine CTLA-4-human IgG1 Fc chimera (R&D Systems) (mouse; human), sequence (P09793 36-162 limits assumed, change not shown): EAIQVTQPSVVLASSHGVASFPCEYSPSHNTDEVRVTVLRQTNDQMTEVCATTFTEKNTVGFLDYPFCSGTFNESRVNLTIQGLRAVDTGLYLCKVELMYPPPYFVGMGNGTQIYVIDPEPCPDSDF
mouse TGF-β1 (R&D systems) (mouse), sequence (P04202 279-390 limits assumed): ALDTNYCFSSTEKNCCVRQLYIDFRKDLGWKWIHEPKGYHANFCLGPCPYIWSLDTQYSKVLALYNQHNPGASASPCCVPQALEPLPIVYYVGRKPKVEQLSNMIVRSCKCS

For the substance “Soluble mouse TGFβ receptor II Fc (from UniProt Q62312 24-166) (Fc fusion)”, the Absorbance at 450 nm (absorbance (450 nm)) came to 1.52 in assay [1] and 1.51 in assay [2].
As for ipilimumab scFv antibody fragment, in assay [3], the % CD80 Blockade Activity is 7%. Further, the % CD86 Blockade Activity in assay [4] came to 32.5%.
In assay [5], Mouse membrane bound IL-12p70 (ligand) had an STAT4-SEAP (Absorbance/% GFP); transfected HEK cells co-cultured with HEK-Blue IL-12 cells (Absorbance/% GFP) of 0.117.
Same read-out and setting: the value for Human membrane bound IL-12p70 (ligand) was 0.237; that for muIL-12p70 (ligand) was 0.11.
In turn, huIL-12p70 (ligand) registered an STAT4-SEAP (Absorbance/% GFP); transfected HEK cells co-cultured with HEK-Blue IL-12 cells (Absorbance/% GFP) in assay [5] of 0.11.
